This is an account of results in US6107048.

One experiment addresses monoclonal antibody 12C3. In words: competition ELISA: peptide inhibits binding of 12C3 to recombinant Rab25. For orientation: ELISA stands for enzyme-linked immunosorbent assay.
In a further experiment the target is monoclonal antibody 8H10. In words: competition ELISA: peptide inhibits binding of 8H10 to recombinant Rab11.

For the molecule KVSKQIQNSPRSNAIALGSAQAGQEPGPGQKR [Rab25 C-terminal variable region synthetic peptide], the IC60 with monoclonal antibody 12C3 was 1 µg/mL.
Take QKQMSDRRENDMSPSNNVVPIHVPPTTENKPKVQ [Rab11 C-terminal variable region synthetic peptide]: the IC50 (as a rule, the concentration that inhibits the measured activity by half) with monoclonal antibody 8H10 was 1 µg/mL.
